Test results as given in patent US20210292422A1 (SURROZEN, published 2021).
One block for each binder: values may come before it.

Legend:
Fzd7 CRD = Fzd7 CRD (UniProt O75084 44-163); assay: BLI (Octet Red 96), biotinylated Fzd7 CRD on SA biosensor
Protocol: Following capture of biotinylated-Fzd7, the SA biosensor with captured biotinylated-Fzd7 was dipped into wells containing the relevant antibodies at 7 different concentrations in running buffer plus a well with only running buffer as a reference channel. KD was determined by global fitting.

FZD8 CRD = biological target: T1, FZD8 CRD (UniProt Q9H461 30-151); assay: BLI (Octet), sequential: FZD8 CRD on sensor, tandem scFv, then LRP6 E3E4
T1 construct: domain: CRD
T1 sequence (looked up): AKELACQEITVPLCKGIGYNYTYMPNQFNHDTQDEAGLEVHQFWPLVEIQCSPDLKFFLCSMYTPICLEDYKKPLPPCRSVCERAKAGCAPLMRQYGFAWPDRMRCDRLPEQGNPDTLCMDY

LRP6E3E4 [1] = biological target: T2, LRP6E3E4 (UniProt O75581 631-1246); assay: as above
T2 construct: domain: E3E4
T2 sequence (looked up): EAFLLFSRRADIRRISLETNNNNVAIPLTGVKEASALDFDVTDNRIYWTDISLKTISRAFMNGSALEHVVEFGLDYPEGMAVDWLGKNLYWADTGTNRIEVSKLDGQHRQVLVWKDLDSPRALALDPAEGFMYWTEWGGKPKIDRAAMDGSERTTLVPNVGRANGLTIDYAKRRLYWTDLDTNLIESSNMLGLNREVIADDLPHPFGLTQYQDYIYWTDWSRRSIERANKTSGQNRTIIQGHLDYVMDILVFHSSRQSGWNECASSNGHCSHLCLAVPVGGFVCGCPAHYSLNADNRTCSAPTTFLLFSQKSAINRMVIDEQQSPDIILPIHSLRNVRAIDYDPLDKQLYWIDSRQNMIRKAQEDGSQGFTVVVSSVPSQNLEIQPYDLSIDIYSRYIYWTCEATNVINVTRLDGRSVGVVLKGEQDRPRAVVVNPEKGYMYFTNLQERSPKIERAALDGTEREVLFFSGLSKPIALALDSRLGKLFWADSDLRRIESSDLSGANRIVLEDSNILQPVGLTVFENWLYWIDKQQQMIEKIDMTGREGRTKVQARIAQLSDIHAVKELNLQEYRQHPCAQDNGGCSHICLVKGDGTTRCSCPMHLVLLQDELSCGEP

LRP6e1e2 = biological target: T3, LRP6e1e2 (UniProt O75581 20-630); assay: column 'Specificity (Clone name)' of the component table; method not given there
T3 construct: domain: e1e2; also called LRP6 E1E2 domains
T3 sequence (looked up): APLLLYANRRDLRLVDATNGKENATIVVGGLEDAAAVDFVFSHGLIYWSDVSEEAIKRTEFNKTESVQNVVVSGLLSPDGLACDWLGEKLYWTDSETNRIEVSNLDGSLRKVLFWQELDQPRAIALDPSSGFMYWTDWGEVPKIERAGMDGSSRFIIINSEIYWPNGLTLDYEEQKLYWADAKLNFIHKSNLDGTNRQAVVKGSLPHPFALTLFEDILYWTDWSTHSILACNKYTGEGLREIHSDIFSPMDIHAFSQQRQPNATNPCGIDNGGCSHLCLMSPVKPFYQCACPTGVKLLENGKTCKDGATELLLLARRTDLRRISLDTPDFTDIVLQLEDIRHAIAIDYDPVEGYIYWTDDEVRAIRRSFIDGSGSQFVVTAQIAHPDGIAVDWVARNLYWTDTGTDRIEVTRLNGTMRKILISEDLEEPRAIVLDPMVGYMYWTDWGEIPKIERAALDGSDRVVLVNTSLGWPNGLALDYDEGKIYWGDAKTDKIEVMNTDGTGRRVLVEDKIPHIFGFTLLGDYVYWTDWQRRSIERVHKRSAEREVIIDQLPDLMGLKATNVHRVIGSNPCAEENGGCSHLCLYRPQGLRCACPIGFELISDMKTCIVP

LRP6e3e4 [2] = biological target: T4, LRP6e3e4 (UniProt O75581 631-1246); assay: as above
T4 construct: domain: e3e4; also called LRP6 E3E4 domain
T4 sequence (looked up): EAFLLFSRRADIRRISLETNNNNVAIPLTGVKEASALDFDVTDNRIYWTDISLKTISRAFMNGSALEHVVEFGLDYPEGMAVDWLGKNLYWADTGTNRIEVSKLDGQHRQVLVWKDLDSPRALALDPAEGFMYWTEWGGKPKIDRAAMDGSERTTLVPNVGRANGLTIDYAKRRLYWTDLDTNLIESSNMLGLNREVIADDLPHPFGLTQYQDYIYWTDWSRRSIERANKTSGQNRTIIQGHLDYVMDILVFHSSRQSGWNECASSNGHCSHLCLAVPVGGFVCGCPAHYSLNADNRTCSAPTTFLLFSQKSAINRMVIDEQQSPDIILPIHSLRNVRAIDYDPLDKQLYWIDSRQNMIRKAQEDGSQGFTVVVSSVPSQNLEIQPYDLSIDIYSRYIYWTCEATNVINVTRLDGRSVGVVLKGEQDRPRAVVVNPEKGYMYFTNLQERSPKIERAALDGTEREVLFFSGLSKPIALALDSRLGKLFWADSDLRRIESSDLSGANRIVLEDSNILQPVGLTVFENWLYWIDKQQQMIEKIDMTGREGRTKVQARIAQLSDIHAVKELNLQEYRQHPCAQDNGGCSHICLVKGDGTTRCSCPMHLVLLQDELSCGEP

Frizzled 7 (Fzd7) = Frizzled 7 (Fzd7) (UniProt O75084 44-163); assay: BLI (Octet), FIG. 15A

binding result (Fzd7 CRD): no binding
B1: 1291-3 (bispecific antibody, human IgG1, kappa, L234A L235A)
light: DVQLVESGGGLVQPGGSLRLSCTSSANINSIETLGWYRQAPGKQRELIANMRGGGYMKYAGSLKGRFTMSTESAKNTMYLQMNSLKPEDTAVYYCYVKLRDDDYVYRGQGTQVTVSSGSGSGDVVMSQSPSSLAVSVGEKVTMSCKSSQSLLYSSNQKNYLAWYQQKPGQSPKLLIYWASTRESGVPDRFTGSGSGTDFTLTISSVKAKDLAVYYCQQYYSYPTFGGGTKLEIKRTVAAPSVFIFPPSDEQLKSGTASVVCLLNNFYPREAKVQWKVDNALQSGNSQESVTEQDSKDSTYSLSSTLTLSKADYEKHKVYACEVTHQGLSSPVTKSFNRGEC
heavy: EVQLVESGGGLVKPGGSLKLSCAASGFTFSSYAMSWVRQTPEKRLEWVATISDGGSYTRYPDKLKGRFTISRDNAKNNLYLQMSHLKSEDTAMYYCARVGGRRDYFDYWGQGTTLTVSSASTKGPSVFPLAPSSKSTSGGTAALGCLVKDYFPEPVTVSWNSGALTSGVHTFPAVLQSSGLYSLSSVVTVPSSSLGTQTYICNVNHKPSNTKVDKKVEPKSCDKTHTCPPCPAPEAAGGPSVFLFPPKPKDTLMISRTPEVTCVVVDVSHEDPEVKFNWYVDGVEVHNAKTKPREEQYNSTYRVVSVLTVLHQDWLNGKEYKCKVSNKALGAPIEKTISKAKGQPREPQVYTLPPSREEMTKNQVSLTCLVKGFYPSDIAVEWESNGQPENNYKTTPPVLDSDGSFFLYSKLTVDKSRWQQGNVFSCSVMHEALHNHYTQKSLSLSPGK

binding result (Fzd7 CRD): no binding
B2: 1791-3 (bispecific antibody, human IgG1, kappa, L234A L235A)
light: DVQLVESGGGLVQPGGSLRLSCTSSANINSIETLGWYRQAPGKQRELIANMRGGGYMKYAGSLKGRFTMSTESAKNTMYLQMNSLKPEDTAVYYCYVKLRDDDYVYRGQGTQVTVSSGSGSGDIVMTQSPKSMSMSVGERVTLRCKASENVLNYVSWYQQKPEQSPKLLIYGASNRYTGVPDRFTGSGSATDFTLTISSVQAEDLADYHCGQSYRYPTFGAGTKLELKRTVAAPSVFIFPPSDEQLKSGTASVVCLLNNFYPREAKVQWKVDNALQSGNSQESVTEQDSKDSTYSLSSTLTLSKADYEKHKVYACEVTHQGLSSPVTKSFNRGEC
heavy: EVQPVESGGGLVQPKGSLKLSCAASGFTFNTYAMHWVRQAPGKGLEWVARIRSKSNNYAKNYDDSVKDRFTISRDDSQSMLYLQMNNLKTEDTAMYYCVRENYGGRFDYWGQGTTLTVSSASTKGPSVFPLAPSSKSTSGGTAALGCLVKDYFPEPVTVSWNSGALTSGVHTFPAVLQSSGLYSLSSVVTVPSSSLGTQTYICNVNHKPSNTKVDKKVEPKSCDKTHTCPPCPAPEAAGGPSVFLFPPKPKDTLMISRTPEVTCVVVDVSHEDPEVKFNWYVDGVEVHNAKTKPREEQYNSTYRVVSVLTVLHQDWLNGKEYKCKVSNKALGAPIEKTISKAKGQPREPQVYTLPPSREEMTKNQVSLTCLVKGFYPSDIAVEWESNGQPENNYKTTPPVLDSDGSFFLYSKLTVDKSRWQQGNVFSCSVMHEALHNHYTQKSLSLSPGK

binding result (FZD8 CRD): binds
binding result (LRP6E3E4 [1]): binds
B3: F3:5:L2_His (bispecific antibody)
chain: EVQLVESGGGLVQPGGSLRLSCAASGFNISYSYIHWVRQAPGKGLEWVASIYSSSGSTSYADSVKGRFTISADTSKNTAYLQMNSLRAEDTAVYYCARGAIDYWGQGTLVTVSSGGGGSGGGGSGGGGSDIQMTQSPSSLSASVGDRVTITCRASQSVSSAVAWYQQKPGKAPKLLIYSASSLYSGVPSRFSGSRSGTDFTLTISSLQPEDFATYYCQQWYSSGHVLITFGQGTKVEIKGSGSGEVQLVESGGGLVQPGGSLRLSCAASGFTFTSYYISWVRQAPGKGLEWVAEISPYSGSTYYADSVKGRFTISADTSKNTAYLQMNSLRAEDTAVYYCALRARPPIRLHPRGSVMDYWGQGTLVTVSSGSAASGSSGGSSSGADIQMTQSPSSLSASVGDRVTITCRASQDVSTAVAWYQQKPGKAPKLLIYSASFLYSGVPSRFSGSGSGTDFTLTISSLQPEDFATYYCQQSYTTPPTFGQGTKVEIKGSGSGHHHHHH
notes: 1:1 tandem scFv

binding result (LRP6e1e2): binds
B4: L1: antiLRP6E1E2 (1115.3) scFv (scFv)
scFv: DVKLVESGGGLVKLGGSLRLSCAASGFSFSTSYMSWVRQTPEKRLELVAAINLNGGSTYYSDTVKGRFTISRDNAKNTLYLQMSSLKSEDTAFYYCASELAGYGTPFAYWGQGTLVTVSAGSAASGSSGGSSSGADIVLTQSPATLSVTPGDSVSLSCKASQSISYNLHWYQQKSHESPRLLIKYTSQSISGIPSRFSGSGSGTDFTLTINNVETEDFGMYFCQQSNSWPLTFGAGTKLEVK

binding result (LRP6e3e4 [2]): binds
B5: L2: antiLRP6E3E4 (G211) scFv (scFv)
scFv: EVQLVESGGGLVQPGGSLRLSCAASGFTFTSYYISWVRQAPGKGLEWVAEISPYSGSTYYADSVKGRFTISADTSKNTAYLQMNSLRAEDTAVYYCALRARPPIRLHPRGSVMDYWGQGTLVTVSSGSAASGSSGGSSSGADIQMTQSPSSLSASVGDRVTITCRASQDVSTAVAWYQQKPGKAPKLLIYSASFLYSGVPSRFSGSGSGTDFTLTISSLQPEDFATYYCQQSYTTPPTFGQGTKVEIK
notes: also called YW211.31.57

binding result (Frizzled 7 (Fzd7)): binds
B6: F2 (R2H1) (scFv)
scFv: EVQLVESGGGLVQPGGSLRLSCAASGFNISSSYIHWVRQAPGKGLEWVAYIYSSYGSTYYADSVKGRFTISADTSKNTAYLQMNSLRAEDTAVYYCARASWYALDYWGQGTLVTVSSGSAASGSSGGSSSGADIQMTQSPSSLSASVGDRVTITCRASQSVSSAVAWYQQKPGKAPKLLIYSASSLYSGVPSRFSGSRSGTDFTLTISSLQPEDFATYYCQQYWYGVAPITFGQGTKVEIK
notes: also called antiFZD1,2,7
